Each block holds one molecule with its values, some of them ahead of it.
Experiments:
[1] = biological target: K. lactis Ndc10 DI–III (residues 1–534), purified (Kluyveromyces lactis); experiment: AUC
Ndc10 full-length = biological target: T1, Ndc10 full-length (Kluyveromyces lactis, UniProt Q6CPM4 1-736); experiment: fluorescence anisotropy
T1 sequence: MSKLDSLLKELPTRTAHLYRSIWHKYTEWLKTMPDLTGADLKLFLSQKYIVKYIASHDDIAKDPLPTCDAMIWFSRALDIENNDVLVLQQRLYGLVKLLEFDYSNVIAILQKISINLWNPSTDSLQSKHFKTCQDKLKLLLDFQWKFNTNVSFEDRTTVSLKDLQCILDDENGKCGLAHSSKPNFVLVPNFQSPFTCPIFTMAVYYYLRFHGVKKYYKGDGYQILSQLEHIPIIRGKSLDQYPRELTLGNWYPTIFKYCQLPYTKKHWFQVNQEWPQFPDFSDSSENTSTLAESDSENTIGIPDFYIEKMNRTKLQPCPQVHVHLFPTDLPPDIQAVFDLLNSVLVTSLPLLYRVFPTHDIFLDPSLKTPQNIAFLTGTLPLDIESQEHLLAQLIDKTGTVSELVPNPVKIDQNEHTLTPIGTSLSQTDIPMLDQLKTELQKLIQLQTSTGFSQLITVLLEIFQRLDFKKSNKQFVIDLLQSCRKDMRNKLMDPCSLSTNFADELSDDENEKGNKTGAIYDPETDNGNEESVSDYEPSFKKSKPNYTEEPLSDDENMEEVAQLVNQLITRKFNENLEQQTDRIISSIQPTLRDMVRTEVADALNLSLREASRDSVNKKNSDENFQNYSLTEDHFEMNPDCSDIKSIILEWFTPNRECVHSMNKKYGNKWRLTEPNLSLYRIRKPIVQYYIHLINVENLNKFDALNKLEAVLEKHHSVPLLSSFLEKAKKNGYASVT

Ndc10 DI-III = biological target: T2, Ndc10 DI-III (Kluyveromyces lactis, UniProt Q6CPM4 1-534); experiment: EMSA
T2 sequence: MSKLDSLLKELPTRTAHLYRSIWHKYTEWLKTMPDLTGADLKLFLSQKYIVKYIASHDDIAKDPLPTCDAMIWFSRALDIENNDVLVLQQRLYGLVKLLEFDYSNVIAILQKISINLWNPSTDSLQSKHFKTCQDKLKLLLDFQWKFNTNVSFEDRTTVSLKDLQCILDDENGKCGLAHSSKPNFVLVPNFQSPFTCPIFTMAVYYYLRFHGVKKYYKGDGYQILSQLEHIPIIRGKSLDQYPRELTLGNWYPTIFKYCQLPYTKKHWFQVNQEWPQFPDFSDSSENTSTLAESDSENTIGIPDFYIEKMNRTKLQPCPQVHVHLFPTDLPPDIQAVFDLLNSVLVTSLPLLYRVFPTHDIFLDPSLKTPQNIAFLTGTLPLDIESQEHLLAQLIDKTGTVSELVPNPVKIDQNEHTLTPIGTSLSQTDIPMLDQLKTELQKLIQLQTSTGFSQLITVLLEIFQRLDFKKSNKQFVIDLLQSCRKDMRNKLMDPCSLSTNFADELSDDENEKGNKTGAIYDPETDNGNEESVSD

Ndc10 DI-II = biological target: T3, Ndc10 DI-II (Kluyveromyces lactis, UniProt Q6CPM4 1-403); experiment: ITC
T3 sequence: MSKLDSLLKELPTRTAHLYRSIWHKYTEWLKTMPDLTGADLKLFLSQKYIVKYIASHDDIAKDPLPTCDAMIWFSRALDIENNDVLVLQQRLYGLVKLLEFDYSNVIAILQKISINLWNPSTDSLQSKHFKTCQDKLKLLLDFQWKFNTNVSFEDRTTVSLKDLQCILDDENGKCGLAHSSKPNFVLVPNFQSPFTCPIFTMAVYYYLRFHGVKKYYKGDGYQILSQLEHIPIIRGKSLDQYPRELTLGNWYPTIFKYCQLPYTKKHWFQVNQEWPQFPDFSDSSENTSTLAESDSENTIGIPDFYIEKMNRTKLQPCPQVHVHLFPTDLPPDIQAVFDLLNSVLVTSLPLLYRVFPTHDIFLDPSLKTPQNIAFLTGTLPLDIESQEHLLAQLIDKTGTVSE

Ndc10 DV = biological target: T4, Ndc10 DV (Kluyveromyces lactis, UniProt Q6CPM4 631-736); experiment: EMSA
T4 sequence: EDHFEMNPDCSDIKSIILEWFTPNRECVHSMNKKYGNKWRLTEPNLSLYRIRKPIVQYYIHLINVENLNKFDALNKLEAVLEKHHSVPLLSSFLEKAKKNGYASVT

stoichiometry N [1]: 2
Molecule: K. lactis Ndc10 DI–III (residues 1–534), purified (domain or fragment)

B1: 30 bp CEN1 CDEIII (dsDNA)
DNA 1: TGCTTTATGTTTCCGAAAATTATTTTATTA
DNA 2: TAATAAAATAATTTTCGGAAACATAAAGCA
binding result (Ndc10 full-length): binds | binding result (Ndc10 DI-III): binds | binding result (Ndc10 DI-II): binds | binding result (Ndc10 DV): no binding

Reference: PMC3252399
